According to patent publication US20130156770A1 (published 2013):

Key:
Assay in all cases: SPR (Biacore)
BCMA-107 x CD3 = biological target: BCMA-107 x CD3
BC 247-C3 x CD3 = biological target: BC 247-C3 x CD3
BC 244-C6 x CD3 = biological target: BC 244-C6 x CD3

Kd (BCMA-107 x CD3): 34.2 nM | Kd (BC 247-C3 x CD3): 0.4 nM | Kd (BC 244-C6 x CD3): 0.3 nM
B1: Human BCMA (receptor)
chain: MLQMAGQCSQNEYFDSLLHACIPCQLRCSSNTPPLTCQRYCNASVTNSVKGTNAILWTCLGLSLIISLAVFVLMFLLRKINSEPLKDEFKNTGSGLLGMANIDLEKSRTGDEIILPRGLEYTVEECTCEDCIKSKPKVDSDHCFPLPAMEEGATILVTTKTNDYCKSLPAALSATEIEKSISAR
